# Test results from the RNAGym collection of RNA variant scans (doi:10.1021/acssynbio.7b00057).
# B1: Pistol ribozyme (parent)
# chain: GGGUCGUUGUUCCAUAAUCGCGUGGAUAUGGCACGCAAGUUUCUACCGGGCACCGUAAAUGUCCGACUGGAGCCGUUCGGGCGGCUAUAAACAGACCUCAGGCCCGAAGCGUGGCGGCACCUGCCGCCGGUGGUAAAAAAGAUCGGAAGAGCACACGUCU
# Variants of: B1
# Assay: aptazyme ON/OFF ratio, guanine; higher = stronger switching; co-transcriptional cleavage with and without guanine
row,Variant,aptazyme ON/OFF ratio
1,G9A U10G U11A C12A C13A,1.08
2,G9A U10G U11A C12A C13U,1.1
3,G9A U11G C12A C13U,1.32
4,G9A U11G C12A C13G,1.31
5,G9A U11G C12A C13A,1.18
6,G9A U10C U11C C12A C13A,1.12
7,G9A U10C U11C C12A C13G,1.18
8,G9A U10C U11C C12A C13U,1.3
9,G9A U10A C12U,1.86
10,G9A U10A C12G,1.61
11,G9A U10A C12A,1.74
12,G9A C12G C13G,1.46
13,G9A C12G C13A,1.3
14,G9A C12G C13U,1.44
15,G9A U10G U11C C13A,1.16
16,G9A U10G U11C C13G,1.12
17,G9A U10G U11C C13U,1.09
18,G9A U10A U11G C12G C13U,1.25
19,G9A U10A U11G C12G C13A,1.42
20,G9A U10A U11G C12G C13G,1.2
21,G9C U10A U11C C12U C13G,1.12

row,Variant,aptazyme ON/OFF ratio
1,G9C U10A U11C C12U C13U,1.29
2,G9C U10A U11C C12U C13A,1.25
3,G9A U10A U11A C12G C13G,1.2
4,G9A U10A U11A C12G C13U,1.23
5,G9A U10A U11A C12G C13A,1.26
6,G9A U11C C12G,1.45
7,G9A U11C C12A,1.38
8,G9A U11C C12U,1.35
9,G9A U10A U11A C12U C13A,1.3
10,G9A U10A U11A C12U C13G,1.3
11,G9A U10A U11A C12U C13U,1.57
12,G9A U10C C13A,1.08
13,G9A U10C C13G,1.03
14,G9A U10C C13U,1.23
15,G9C U10A U11C C12A,1.48
16,G9C U10A U11C C12G,1.18
17,G9C U10A U11C C12U,1.13
18,G9A U10C C12G C13A,1.23
19,G9A U10C C12G C13U,1.31
20,G9A U10C C12G C13G,1.23
21,U8G U11G C13U,1.03

row,Variant,aptazyme ON/OFF ratio
1,U8G U11G C13G,1.05
2,G9A U10C U11A C12U,1.78
3,G9A U10C U11A C12A,1.67
4,G9A U10C U11A C12G,1.48
5,G9C U10A U11G C12A,1.06
6,G9C U10A U11G C12G,1.23
7,G9C U10A U11G C12U,1.37
8,G9C U10A U11C C13G,1.04
9,G9C U10A U11C C13A,1.09
10,G9C U10A U11C C13U,1.06
11,G9A U11G C12G C13G,1.3
12,G9A U11G C12G C13U,1.15
13,G9A U11G C12G C13A,1.18
14,G9A C12U,1.78
15,G9A C12G,1.71
16,G9A C12A,1.92
17,G9A U10G U11G C12A C13G,1.13
18,G9A U10G U11G C12A C13A,1.19
19,G9A U10G U11G C12A C13U,1.25
20,G9A U10A U11C C12A C13U,1.41
21,G9A U10A U11C C12A C13G,1.23

row,Variant,aptazyme ON/OFF ratio
1,G9A U10A U11C C12A C13A,1.38
2,G9C U10A,1.98
3,G9A U10G U11C,1.1
4,G9A U10G U11A,1.06
5,G9A U10G U11G,1.11
6,G9A U10C U11A C13U,1.3
7,G9A U10C U11A C13G,1.14
8,G9A U10C U11A C13A,1.41
9,G9A U11A C12A,1.68
10,G9A U11A C12U,1.83
11,G9A U11A C12G,1.51
12,G9A U10G C12G C13A,1.19
13,G9A U10G C12G C13U,1.29
14,G9A U10G C12G C13G,1.21
15,G9C U10A U11G C12U C13A,1.08
16,G9C U10A U11G C12U C13G,1.16
17,G9A U10A U11C C12U C13A,1.34
18,G9A U10A U11C C12U C13U,1.26
19,G9A U10A U11C C12U C13G,1.36
20,G9A,3.41
21,G9C,1.06
